# Assay results reported in patent US20160237156A1.
# Key:
# CXCR4 (human) = CXCR4 (human) (UniProt P61073); experiment: cell-based or functional assay
# [1] = target: SNAP-tag-CXCR4 (Tag-lite labeled CXCR4 cells, Cisbio Bioassays) (UniProt P61073); experiment: Tag-lite HTRF competition with 50 nM fluorescent SDF-1, Cheng-Prusoff
# [2] = target: SNAP-tag-CXCR4 (Tag-lite labeled CXCR4 cells, Cisbio Bioassays) (UniProt P61073); experiment: Tag-lite HTRF competition with 50 nM fluorescent SDF-1 on Tag-lite labeled CXCR4 cells
# SNAP-tag-CXCR4 (Tag-lite labeled CXCR4 cells, Cisbio Bioassays), sequence (P61073 whole entry): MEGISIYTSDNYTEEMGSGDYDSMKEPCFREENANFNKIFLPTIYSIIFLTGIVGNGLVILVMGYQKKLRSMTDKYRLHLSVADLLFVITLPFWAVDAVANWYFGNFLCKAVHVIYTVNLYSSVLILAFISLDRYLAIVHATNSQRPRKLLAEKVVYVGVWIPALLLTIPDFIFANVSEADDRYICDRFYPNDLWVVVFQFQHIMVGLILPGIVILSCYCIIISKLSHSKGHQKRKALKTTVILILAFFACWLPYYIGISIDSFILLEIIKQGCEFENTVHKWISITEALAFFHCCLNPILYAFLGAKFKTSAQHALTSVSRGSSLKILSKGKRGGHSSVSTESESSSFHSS
# CXCR4 (human), sequence (P61073 whole entry): as above
substance,measurement,setting,value
"mouse anti-human CXCR4 monoclonal antibody (Clone 12G5, R&D system)","inhibition of SDF-1 induced migration of Ramos cells, EC50",CXCR4 (human),2.1 nM
same,Ki,[1],0.97 nM
same,IC50,[2],4.4 nM
